Measured values reported in US20240336672A1 (INSTITUT PASTEUR, published 2024).

Key:
[1] = molecular target: T1, SARS-CoV-2 Spike ectodomain (tri-S), Wuhan (SARS-CoV-2, UniProt P0DTC2 14-1208); experiment: infrared immunoblot on heat-denatured tri-S
[2] = molecular target: T1, SARS-CoV-2 Spike ectodomain (tri-S), …; experiment: ELISA; set-up: unit not given beside the values
[3] = molecular target: SARS-CoV-2 RBD (B.1.1.7) domain (SARS-CoV-2); experiment: ELISA; set-up: unit not given beside the values
[4] = molecular target: SARS-CoV-2 RBD (B.1.351) domain (SARS-CoV-2); experiment: ELISA; set-up: unit not given beside the values
[5] = molecular target: SARS-CoV-2 RBD (P.1) domain (SARS-CoV-2); experiment: ELISA; set-up: unit not given beside the values
[6] = molecular target: T2, SARS-CoV-2 kappa variant B.1.617.1/3 RBD domain (SARS-CoV-2); experiment: ELISA; set-up: unit not given beside the values
[7] = molecular target: T3, SARS-CoV-2 delta variant B.1.617.2/3 RBD domain (SARS-CoV-2); experiment: ELISA; set-up: unit not given beside the values
[8] = molecular target: SARS-CoV-2 delta plus variant RBD (SARS-CoV-2); experiment: ELISA; set-up: unit not given beside the values
[9] = molecular target: SARS-CoV-2 RBD (B.1.351) domain (SARS-CoV-2); experiment: ELISA; set-up: unit not given beside the values; remark: listed apart in the source
[10] = molecular target: SARS-CoV-2 omicron variant B.1.1.529 RBD domain (SARS-CoV-2); experiment: ELISA; set-up: unit not given beside the values
[11] = molecular target: SARS-CoV-2 omicron variant B.1.1.529 Spike ectodomain (tri-S, HexaPro) (SARS-CoV-2, UniProt P0DTC2 14-1208); experiment: ELISA; set-up: unit not given beside the values
[12] = molecular target: T4, SARS-CoV-2 spike, Delta variant (B.1.617.2), on virus or pseudotyped particles (SARS-CoV-2); experiment: cell-based or functional assay
[13] = molecular target: SARS-CoV-2 RBD (B.1.1.7) domain (SARS-CoV-2); experiment: RBD-ACE2 competition ELISA; set-up: unit not given beside the values
[14] = molecular target: SARS-CoV-2 RBD (B.1.351) domain (SARS-CoV-2); experiment: RBD-ACE2 competition ELISA; set-up: unit not given beside the values
[15] = molecular target: SARS-CoV-2 RBD (P.1) domain (SARS-CoV-2); experiment: RBD-ACE2 competition ELISA; set-up: unit not given beside the values
[16] = molecular target: T2, SARS-CoV-2 kappa variant B.1.617.1/3 …; experiment: RBD-ACE2 competition ELISA; set-up: unit not given beside the values
[17] = molecular target: T3, SARS-CoV-2 delta variant B.1.617.2/3 …; experiment: RBD-ACE2 competition ELISA; set-up: unit not given beside the values
[18] = molecular target: SARS-CoV-2 delta plus variant RBD (SARS-CoV-2); experiment: RBD-ACE2 competition ELISA; set-up: unit not given beside the values
[19] = molecular target: T3, SARS-CoV-2 delta variant B.1.617.2/3 …; experiment: RBD-ACE2 competition ELISA
[20] = molecular target: SARS-CoV-2 spike, Beta variant (B.1.351), on virus or pseudotyped particles (SARS-CoV-2); experiment: cell-based or functional assay
[21] = molecular target: SARS-CoV-2 spike, Gamma variant (P.1), on virus or pseudotyped particles (SARS-CoV-2); experiment: cell-based or functional assay
[22] = molecular target: T1, SARS-CoV-2 Spike ectodomain (tri-S), …; experiment: ELISA
[23] = molecular target: T4, SARS-CoV-2 spike, Delta variant …; experiment: cell-based or functional assay; remark: listed apart in the source

B1: Cv2.3132 (IgG) (antibody, V domains shown)
VH: EVQLVESGGGLVKPGGSLRLSCAASGFTFSDYYMSWIRQAPGKGLEWVSYISSSGSVQYYADSVKGRFTISRDNAENSLYLQMNSLRAEDTAVYYCARYYYDSSGYWKRLDYWGQGTLVTVSS
VL: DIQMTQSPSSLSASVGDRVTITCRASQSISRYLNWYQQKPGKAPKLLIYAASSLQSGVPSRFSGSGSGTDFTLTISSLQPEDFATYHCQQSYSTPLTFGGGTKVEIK
B1: binds [1].

B2: Cv2.5179 (recombinant human IgG1) (antibody, V domains shown)
VH: QVQLVQSGPEVKKPGTSVKVSCKASGFTFTSSAVQWVRQARGQRLEWIGWIVVGSGNTNYAQKFQERVTITRDMSTSTAYMELSSLRSEDTAVYYCAAPHCSSTSCYDAFDIWGQGTMVTVSS
VL: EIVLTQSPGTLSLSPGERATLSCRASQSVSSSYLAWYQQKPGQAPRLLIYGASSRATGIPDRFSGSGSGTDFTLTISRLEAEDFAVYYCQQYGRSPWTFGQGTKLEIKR
notes: also called Cv2.5179 IgG
With B2 the “AUC (Binding)” value [2] was 12, the “AUC (Binding)” value [3] was 11 and the “AUC (Binding)” value [4] was 11. The “AUC (Binding)” value [5] was 11, the “AUC (Binding)” value [6] was 12 and the “AUC (Binding)” value [7] was 12. For the same binder, the “AUC (Binding)” value [8] was 12, the AUC [9] was 12 and the AUC [10] was 2. For the same binder, the AUC [11] was 3, the “IC50, S-Fuse neutralisation” value [12] was 5.2 ng/mL and the “AUC (Blocking)” value [13] was 64. For the same binder, the “AUC (Blocking)” value [14] was 49, the “AUC (Blocking)” value [15] was 50 and the “AUC (Blocking)” value [16] was 114. The “AUC (Blocking)” value [17] was 115, the “AUC (Blocking)” value [18] was 144 and the “IC50 (read off the curve)” value [19] was about 0.4 µg/mL.

B3: CB6 (parental IgG1 version) (antibody, V domains shown)
VH: EVQLVESGGGLVQPGGSLRLSCAASGFTVSSNYMSWVRQAPGKGLEWVSVIYSGGSTFYADSVKGRFTISRDNSMNTLFLQMNSLRAEDTAVYYCARVLPMYGDYLDYWGQGTLVTVSS
VL: not shown
In the case of B3, the “IC50, in vitro neutralisation” value [20] is reported as over 25 nM and the “IC50, in vitro neutralisation” value [21] is reported as over 25 nM.

B4: CV2.1388 (antibody)
heavy chain: QVQLVQSGPEVKKPGTSVKVSCKASGFTFTSSAVQWVRQARGQRLEWIGWIVVGSGDTNYAQKFQERVTITRDMSTSTAYMELSSLRSEDTAVYYCATDRQAGSRTYYFPGEGWFDPWGQGTLVTVSS
light chain: QSVLTQPPSVSAAPGQKVTISCSGSTTNIGNNYVSWYQRLPGTAPKLLIYDNNKRPSGIPDRFSGSKSGTSATLGITGLQTGDEADYYCGTWDSSLSGVVFRRRDQADRPR
B4: no binding (tested: 10 µg/ml) [22].

B5: LY-CoV555 (parental IgG1 version) (antibody, V domains shown)
VH: QVQLVQSGAEVKKPGSSVKVSCKASGGTFSNYAISWVRQAPGQGLEWMGRIIPILGIANYAQKFQGRVTITADKSTSTAYMELSSLRSEDTAVYYCARGYYEARHYYYYYAMDVWGQGTAVTVSS
VL: not shown
In the case of B5, the “IC50, in vitro neutralisation” value [20] is reported as over 25 nM, the “IC50, in vitro neutralisation” value [21] is reported as over 25 nM and the “IC50, in vitro neutralisation” value [23] is reported as over 25 nM.

B6: CV2.1174 (antibody, V domains shown)
VH: EVQLVESGPEVKKPGTSVKVSCKASGFTFTRSAMQWVRQARGQRLEWIGWIVVGSGNTNYAQKFQERVTITRDMSTSTAYMELSSLRSEDTAVYYCAARQDYYYYGMDVWGQGTTVTVSS
VL: DIQMTQSPSSLSASVGDRVTITCRASQGMSNSLDWDQQKPGKAPKLLLYAASRLKSGVPSRFSGSGSGTDYTLTISSLQPEDFATYYCQQYYSDPPKTFGQGTKVEIK
B6: no binding (tested: 10 µg/ml) [22].
